Experimental findings from the supplement of paper PMC5998384 are described below.

For this data set, the system named is HeLa Kyoto. Put plainly: melting temperature (median over replicates), in situ; higher = more thermally stable.
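Note: HeLa Kyoto cells synchronized by double thymidine or nocodazole block, proteins quantified by TMT10plex mass spectrometry, three independent biological replicates.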

As to “MGSRWSSEEERQPLLGPGLGPGLGASWRSREAAAAALPAAVPGPGRVYGRRWLVLLLFSLLAFVQGLVWNTWGPIQNSARQAYGFSSWDIALLVLWGPIGFLPCFAFMWLLDKRGLRITVLLTSFLMVLGTGLRCIPISDLILKRRLIHGGQMLNGLAGPTVMNAAPFLSTTWFSADERATATAIASMLSYLGGACAFLVGPLVVPAPNGTSPLLAAESSRAHIKDRIEAVLYAEFGVVCLIFSATLAYFPPRPPLPPSVAAASQRLSYRRSVCRLLSNFRFLMIALAYAIPLGVFAGWSGVLDLILTPAHVSQVDAGWIGFWSIVGGCVVGIAMARFADFIRGMLKLILLLLFSGATLSSTWFTLTCLNSITHLPLTTVTLYASCILLGVFLNSSVPIFFELFVETVYPVPEGITCGVVTFLSNMFMGVLLFFLTFYHTELSWFNWCLPGSCLLSLLLILCFRESYDRLYLDVVVSV [DIRC2]”, where the note is “cell cycle stage: G1/S”, the melting temperature came out at 54.8 °C. As for “MIEAEEQQPCKTDFYSELPKVELHAHLNGSISSHTMKKLIAQKPDLKIHDQMTVIDKGKKRTLEECFQMFQTIHQLTSSPEDILMVTKDVIKEFADDGVKYLELRSTPRRENATGMTKKTYVESILEGIKQSKQENLDIDVRYLIAVDRRGGPLVAKETVKLAEEFFLSTEGTVLGLDLSGDPTVGQAKDFLEPLLEAKKAGLKLALHLSEIPNQKKETQILLDLLPDRIGHGTFLNSGEGGSLDLVDFVRQHRIPLELCLTSNVKSQTVPSYDQHHFGFWYSIAHPSVICTDDKGVFATHLSQEYQLAAETFNLTQSQVWDLSYESINYIFASDSTRSELRKKWNHLKPRVLHI [ADAL]”, the melting temperature was determined as 57.1 °C (cell cycle stage: G1/S) and 57.2 °C (cell cycle stage: mitosis). As for “MKKTPVFLESLVTNMLRLRAICPFSWRVFQFRPISCEPLIIQMNKCTDEEQMFGFIERNKAILSEKQVGCAFDMLWKLQKQKTSLLKNAEYVRDHPQFLTLHNLATNKFKLMNDDTLVNVLYVTQQFAGEAHDPLVEALVTEAWRRLERFDIKLLSEFSSCLADQHLYFSPLMGKIADIVHRNLETTQDLSSLSVLMVNISSLISRHFQQQLVNKTELLFDTIDSSEVNVAKSIAKFLRNVRYRYQPLLERCNNVFLSNVDHLDLDSISKILSVYKFLQFNSFEFIIMAKKKLTEMIPLCNHPASFVKLFVALGPIAGPEEKKQLKSTMLLMSEDLTGEQALAVLGAMGDMESRNSCLIKRVTSVLHKHLDGYKPLELLKITQELTFLHFQRKEFFAKLRELLLSYLKNSFIPTEVSVLVRAISLLPSPHLDEVGISRIEAVLPQCDLNNLSSFATSVLRWIQHDHMYLDNMTAKQLKLLQKLDHYGRQRLQHSNSLDLLRKELKSLKGNTFPESLLEEMIATLQHFMDDINYINVGEIASFISSTDYLSTLLLDRIASVAVQQIEKIHPFTIPAIIRPFSVLNYDPPQRDEFLGTCVQHLNSYLGILDPFILVFLGFSLATLEYFPEDLLKAIFNIKFLARLDSQLEILSPSRSARVQFHLMELNRSVCLECPEFQIPWFHDRFCQQYNKGIGGMDGTQQQIFKMLAEVLGGINCVKASVLTPYYHKVDFECILDKRKKPLPYGSHNIALGQLPEMPWESNIEIVGSRLPPGAERIALEFLDSKALCRNIPHMKGKSAMKKRHLEILGYRVIQISQFEWNSMALSTKDARMDYLRECIFGEVKSCL [FASTKD1]”, the melting temperature (cell cycle stage: mitosis) was determined as 49.9 °C. Consider “MKPNFSLRLRIFNLNCWGIPYLSKHRADRMRRLGDFLNQESFDLALLEEVWSEQDFQYLRQKLSPTYPAAHHFRSGIIGSGLCVFSKHPIQELTQHIYTLNGYPYMIHHGDWFSGKAVGLLVLHLSGMVLNAYVTHLHAEYNRQKDIYLAHRVAQAWELAQFIHHTSKKADVVLLCGDLNMHPEDLGCCLLKEWTGLHDAYLETRDFKGSEEGNTMVPKNCYVSQQELKPFPFGVRIDYVLYKAVSGFYISCKSFETTTGFDPHRGTPLSDHEALMATLFVRHSPPQQNPSSTHGPAERSPLMCVLKEAWTELGLGMAQARWWATFASYVIGLGLLLLALLCVLAAGGGAGEAAILLWTPSVGLVLWAGAFYLFHVQEVNGLYRAQAELQHVLGRAREAQDLGPEPQPALLLGQQEGDRTKEQ [SMPD2]”, for which, for the setting “cell cycle stage: mitosis”, the melting temperature came to 55.7 °C.
